In paper doi:10.1101/2024.10.18.618978v3:

Assays:
[1] = substrate: NCCCNCCCCNCCCN; experiment: purified protein; settings: 1 mM AcCoA, pH 7.5, 37 °C
[2] = substrate: NCCCNCCCCNCCCN; experiment: colorimetric DTNB SSAT assay; type: biochemical, Staphylococcus aureus; settings: 1 mM AcCoA, pH 7.5, 37 °C, approximate value given in Methods

Row | Protein | Km ([1]; Michaelis-Menten fit) [µM] | K0.5 ([1]; allosteric sigmoidal fit) [µM] | Km [2] [µM]
1 | SpeG (Staphylococcus aureus subsp. aureus USA300) (protein) MKLRALEYSDLLFVHELNNEYSIMSYWFEEPYESLTELQHLFDKHLLDESERRFIVEDENQVVGIVELVEINYIHRNCEIQIIIKPEFSGKGYAKFAFEKAIIYAFNILNMHKIYLYVDADNKKAIHIYESQGFKTEGLLKEQFYTKGKYKDAYFMSLLKSEYIL | 1312 ± 348.1 | 757.5 ± 63.35 | –
2 | PaiASa (Staphylococcus aureus subsp. aureus USA300) (protein) MAGIIKEISEQNASELVELATRTFYDTFGSYYDDKDFDQFFKDNYTVEKFTQEINHVDSFHYFYQEDGANVGYIKMNINSAQTEEMGETYLEVQRIYFLKDFQGGGRGSQLIELAEKIAQEHNKHKIWLGVWEHNPRAQAFYKRHGFKVVGEHHFQTGDVTDTDLIMEKEL | – | – | 2000
